Here are results for one substance from PMC10339064.

In the assay the target is Peroxisome proliferator-activated receptor alpha (PPARα), wild type, FLAG-tagged (human) (UniProt Q07869).
UniProt Q07869, sequence (Q07869 whole entry): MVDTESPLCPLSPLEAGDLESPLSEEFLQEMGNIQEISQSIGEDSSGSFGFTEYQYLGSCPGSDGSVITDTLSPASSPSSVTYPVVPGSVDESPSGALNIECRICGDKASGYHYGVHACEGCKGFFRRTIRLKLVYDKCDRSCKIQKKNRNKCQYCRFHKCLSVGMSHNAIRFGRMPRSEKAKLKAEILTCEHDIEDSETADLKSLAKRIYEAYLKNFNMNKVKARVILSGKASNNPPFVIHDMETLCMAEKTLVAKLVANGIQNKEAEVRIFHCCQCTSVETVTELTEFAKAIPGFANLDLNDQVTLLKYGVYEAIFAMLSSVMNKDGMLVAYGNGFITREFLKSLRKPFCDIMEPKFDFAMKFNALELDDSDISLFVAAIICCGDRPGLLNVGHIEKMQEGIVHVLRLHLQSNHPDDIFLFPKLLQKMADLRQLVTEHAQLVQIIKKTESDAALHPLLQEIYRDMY

As to “C-terminal binding protein 2 (CtBP2), wild type, HA-tagged (from UniProt P56545 1-445) (natural protein)”, the PPRE-driven luciferase reporter in HEK293 cells activated by ectopic PPARα; reduction by expression of CtBP2 turned out to be 53%.
